Test results from PMC3711080 (Bioconjugate chemistry, 2011).

Legend:
CXCR4 = CXCR4 (Homo sapiens, UniProt P61073); assay: Competition binding against 250 nM of peptide 3, flow cytometry; conditions: ratio of KD values, higher affinity of 1
[1] = biological target: chemokine receptor 4 (CXCR4) (human (endogenous in MDAMB231)) (UniProt P61073); assay: flow cytometry on cells
Sequence of chemokine receptor 4 (CXCR4) (human (endogenous in MDAMB231)) (P61073 whole entry): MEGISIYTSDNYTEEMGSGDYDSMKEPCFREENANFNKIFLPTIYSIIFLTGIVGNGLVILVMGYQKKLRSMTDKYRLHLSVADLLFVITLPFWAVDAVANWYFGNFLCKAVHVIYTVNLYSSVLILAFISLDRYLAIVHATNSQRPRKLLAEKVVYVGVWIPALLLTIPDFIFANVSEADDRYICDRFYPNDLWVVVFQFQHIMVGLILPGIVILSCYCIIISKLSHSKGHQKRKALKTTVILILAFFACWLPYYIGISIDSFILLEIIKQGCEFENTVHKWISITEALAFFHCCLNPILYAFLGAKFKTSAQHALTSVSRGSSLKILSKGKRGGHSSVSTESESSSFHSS

Sequence of CXCR4 (P61073 whole entry): as above

Row | receptor affinity relative to derivatives 3 and 4 (CXCR4) | Kd [1] [µM] | MFIR (mean fluorescence intensity ratio), MDAMB231^CXCR4+ cells [1] | Substance
1 | approximately 20 times | – | – | Ac-TZ14011 [compound 1]
2 | – | 0.177 | 56.7 | Ac-TZ14011 labeled with the MSAP reagent, indium-labeled (peptide 4)
3 | – | 0.187 | 45.3 | Ac-TZ14011 labeled with the MSAP reagent (peptide 3)
